Test results taken from publication PMC11882849, “Dynamic and intricate regulation by the Csr sRNAs in the Arctic Pseudoalteromonas fuliginea”.

Target: CsrA (Pseudoalteromonas fuliginea BSW20308, UniProt A0A063KJE6 1-63)
Experiment: EMSA; 1 uM CsrA; 0.1-0.5 nM RNA, 40 mM NaCl, 4 mM Tris pH 8.0, 4 mM MgCl2, 4% glycerol, 100 mg/ml BSA (so in the source), 20 mM DTT, room temperature 30 min, native PAGE
Conditions: protein: recombinant; tags: C-terminal His6; chain copies: 2

B1: Pf3 sRNA (structured_RNA)
RNA: AAUAAAAAAACGGAAAUAGCUAUAAGGAAAGUAGCGCGGCACGACUACAUAGCACAAGAUUGGUGCUACUAAAGGAAAUAAUAAAAAAGAGUCAGGAAGACCGAUAAUAAUAAAAACUCAUGGAAGUUUAAUAAUAAAAACAAAAUGGAAUGCUACAAGGAACGUAAAAAUAAUAACAAUACGGACUGAUAAUAAUAAAAAUAAUAAAGACUAAAAAAAGUCGAAGGGAGA
binding result: binds
